Patent US20250197485A1, “Anti-ED-A Antibodies for the Treatment of Pulmonary Hypertension” (Universitätsklinikum Jena, priority 2022, published 2025)

What was measured:
MCT-induced PH [1] = experiment: Mouse model of MCT-induced PH, overall hemodynamic, echocardiographic and histopathological evaluation; type: in vivo, C57BL/6 mice; details: compared with MAC treatment
Excerpt: PH was induced in C57BL/6 mice (bodyweight: 25-30 g). The animals were obtained from ZET facility (Zentale Experimentelle Tierhaltung) of the University Hospital Jena (UKJ, Jena, Germany). Prior to PH induction, mice were allowed to acclimatize for at least 7 days with ad libitum access to food and water as well as controlled light/dark cycles. 41 animals were investigated divided into the following five experimental groups: • 1) sham induced controls (n=7) • 2) MCT induced PH (n=12) • 3) MCT induced PH+MAC (n=6) • 4) MCT induced PH+F8 IgG (n=8) • 5) MCT induced PH+KSF IgG (n=8) For PH induction, the Monocrotaline (MCT, Carl Roth, Germany) method was used. […] The clinical condition was assessed using an established score (clinical severity score=CSS) from 1 to 5 (1=no signs of clinical alterations, 2=low-grade impairment, 3=mid-grade impairment, 4=high-grade impairment, 5=exitus) obtained by evaluating spontaneous activity, reaction to exogenous stimuli and posture. […] Body temperature and respiratory rate were continuously monitored. All surrogate parameters of right ventricular (RV) morphology and function were assessed, among others, RV basal and medial diameters (in mm), RV length (in mm), tricuspid annular plane systolic excursion (TAPSE, in mm), right atrial area (RA area, in mm^2) or main pulmonary artery diameter (MPA, in mm). […] Data are expressed as mean±standard deviation. […]

MCT-induced PH [2] = experiment: Right heart catheterization (RVPsys) in mouse model of MCT-induced PH; type: in vivo, C57BL/6 mice
Excerpt: PH was induced in C57BL/6 mice (bodyweight: 25-30 g). The animals were obtained from ZET facility (Zentale Experimentelle Tierhaltung) of the University Hospital Jena (UKJ, Jena, Germany). Prior to PH induction, mice were allowed to acclimatize for at least 7 days with ad libitum access to food and water as well as controlled light/dark cycles. 41 animals were investigated divided into the following five experimental groups: • 1) sham induced controls (n=7) • 2) MCT induced PH (n=12) • 3) MCT induced PH+MAC (n=6) • 4) MCT induced PH+F8 IgG (n=8) • 5) MCT induced PH+KSF IgG (n=8)
For PH induction, the Monocrotaline (MCT, Carl Roth, Germany) method was used.
The sham induced controls were injected with 30 μl NaCl not containing MCT at day 1 (single dose; intraperitoneally, i.p.). […] The other 4 experimental groups were injected with MCT to induce PH (single dose; intraperitoneally, i.p.; 60 mg/kg body weight; volume 30 μl). Animals in the MCT induced PH+MAC group received the drug (Macitentan, Actelion Pharmaceuticals Ltd.) from day 14 to day 28 (once daily; per os; 15 mg/kg body weight). Animals in the MCT induced PH+F8 IgG group received F8 IgG 3 times on day 14, 16 and 18 (intravenously, i.v.; 195 μg/injection; volume 200 μl). Similarly, animals in the MCT induced PH+KSF IgG group received KSF IgG 3 times on day 14, 16 and 18 (intravenously, i.v.; 195 μg/injection; volume 120 μl).
On day 28 after MCT injection, mice of all experimental groups were deeply anesthetized with a single dose of 100 mg/kg body weight ketamine and 10 mg/kg body weight Xylazin in approximately 60 μl each administered i.p.
Right heart catheterization using a 1.4 F micro conductance pressure-volume catheter (Model SPR-839; Millar Instruments Inc; PowerLab system, ADInstruments Ltd., Oxford, UK) was performed via the right vena jugularis interna to measure the systolic right ventricular pressure and thereby verify the success of the experimental setting. Mice were then sacrificed in deep anesthesia and analgesia to carry out cardiac blood collection after thoracotomy and to harvest the organs.
Statistical analyses were performed using IBM SPSS statistical software, version 28.0 (IBM SPSS Statistics for Windows. Armonk, NY, USA). Data are expressed as mean±standard deviation. Kruskal-Wallis and Mann-Whitney-U test were used to test for significant differences between the different groups. A p-value<0.05 as statistically significant.

B1: F8 IgG: Chimaeric anti-ED-A antibody: human F8 VH/VL fused to murine IgG2a constant regions; heavy chain SEQ ID NO: 11, light chain SEQ ID NO: 12 (antibody)
heavy: EVQLLESGGGLVQPGGSLRLSCAASGFTFSLFTMSWVRQAPGKGLEWVSAISGSGGSTYYADSVKGRFTISRDNSKNTLYLQMNSLRAEDTAVYYCAKSTHLYLFDYWGQGTLVTVSSAKTTAPSVYPLAPVCGDTTGSSVTLGCLVKGYFPEPVTLTWNSGSLSSGVHTFPAVLQSDLYTLSSSVTVTSSTWPSQSITCNVAHPASSTKVDKKIEPRGPTIKPCPPCKCPAPNLLGGPSVFIFPPKIKDVLMISLSPIVTCVVVDVSEDDPDVQISWFVNNVEVHTAQTQTHREDYNSTLRVVSALPIQHQDWMSGKEFKCKVNNKDLPAPIERTISKPKGSVRAPQVYVLPPPEEEMTKKQVTLTCMVTDFMPEDIYVEWTNNGKTELNYKNTEPVLDSDGSYFMYSKLRVEKKNWVERNSYSCSVVHEGLHNHHTTKSFSRTPGK
light: EIVLTQSPGTLSLSPGERATLSCRASQSVSMPFLAWYQQKPGQAPRLLIYGASSRATGIPDRFSGSGSGTDFTLTISRLEPEDFAVYYCQQMRGRPPTFGQGTKVEIKRTDAAPTVSIFPPSSEQLTSGGASVVCFLNNFYPKDINVKWKIDGSERQNGVLNSWTDQDSKDSTYSMSSTLTLTKDEYERHNSYTCEATHKTSTSPIVKSFNRNEC
beneficial effects with respect to the majority of the parameters (RVPsys, echocardiographic signs, lung tissue damage) (MCT-induced PH [1]): superior to MAC treatment | attenuation in RVPsys compared to the MCT-induced PH group without treatment (positive control) (MCT-induced PH [2]; day 28, F8 IgG 195 μg i.v. day 14, 16, 18 (p=0.010), MAC 15 mg/kg per os once daily day 14-28 (n.s.)): significant attenuation | RVPsys compared to the group treated with the negative control antibody KSF IgG (MCT-induced PH [2]; day 28, p=0.003): significantly reduced | pressure values in the right ventricle (RVPsys) (MCT-induced PH [2]; in contrast to treatment with KSF IgG): significant reduction
